Numbered stars: 1 amine (or outer) side, 2 acyl side, 3 side chain; on linkers, the order of the positions; unused ones are H or OH. Square brackets hold non-standard residues; d marks the D form. Side chains are listed from the residue outwards. Ends that are not written are not given here. * marks the point of attachment. C18 diacid = O=C(O)CCCCCCCCCCCCCCCCC(=O)*; γGlu = O=C(O)[C@H](CCC(=O)[*:2])N[*:1]; AEEA = NCCOCCOCC(=O)O; Aib = CC(C)(N)C(=O)O

One experiment addresses T1, human GIP receptor (human, UniProt P48546 22-466).
T1 construct: whole, on cells; also called hGIPR; hGIP-R
T1 sequence (looked up): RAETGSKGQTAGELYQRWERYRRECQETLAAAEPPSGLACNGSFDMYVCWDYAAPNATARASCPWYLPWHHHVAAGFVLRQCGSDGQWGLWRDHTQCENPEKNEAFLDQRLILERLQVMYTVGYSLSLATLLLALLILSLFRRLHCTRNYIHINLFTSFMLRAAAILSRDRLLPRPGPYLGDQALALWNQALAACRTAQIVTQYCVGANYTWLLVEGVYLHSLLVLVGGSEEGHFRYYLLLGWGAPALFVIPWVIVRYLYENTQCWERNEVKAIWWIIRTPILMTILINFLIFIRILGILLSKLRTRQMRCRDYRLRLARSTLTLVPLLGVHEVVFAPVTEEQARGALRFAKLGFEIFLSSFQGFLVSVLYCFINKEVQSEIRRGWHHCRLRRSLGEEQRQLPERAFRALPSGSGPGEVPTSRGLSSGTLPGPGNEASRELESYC
Put plainly: [125I]-GIP competition SPA, hGIPR membranes.

The next experiment deals with T2, human GLP-1 receptor (human, UniProt P43220 24-463).
T2 construct: whole, on cells; also called hGLP-1R; hGLP1R
Put plainly: [125I]-GLP-1 competition SPA, hGLP-1R membranes. The gist of the method: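 Competition binding in 25 mM HEPES pH 7.4, 2.5 mM CaCl₂, 1 mM MgCl₂, 0.1% bacitracin, 0.003% TWEEN-20, EDTA-free protease inhibitors. IC₅₀ from four-parameter nonlinear fit; Kᵢ given as geometric mean ± SEM, n = independent replicates on different days.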

A further experiment has as its target T3, human glucagon receptor (human, UniProt P47871 26-477).
T3 construct: whole, on cells; also called hGcgR; GcgR
Put plainly: [125I]-Gcg competition SPA, hGcgR membranes.

T3 sequence (P47871 26-477): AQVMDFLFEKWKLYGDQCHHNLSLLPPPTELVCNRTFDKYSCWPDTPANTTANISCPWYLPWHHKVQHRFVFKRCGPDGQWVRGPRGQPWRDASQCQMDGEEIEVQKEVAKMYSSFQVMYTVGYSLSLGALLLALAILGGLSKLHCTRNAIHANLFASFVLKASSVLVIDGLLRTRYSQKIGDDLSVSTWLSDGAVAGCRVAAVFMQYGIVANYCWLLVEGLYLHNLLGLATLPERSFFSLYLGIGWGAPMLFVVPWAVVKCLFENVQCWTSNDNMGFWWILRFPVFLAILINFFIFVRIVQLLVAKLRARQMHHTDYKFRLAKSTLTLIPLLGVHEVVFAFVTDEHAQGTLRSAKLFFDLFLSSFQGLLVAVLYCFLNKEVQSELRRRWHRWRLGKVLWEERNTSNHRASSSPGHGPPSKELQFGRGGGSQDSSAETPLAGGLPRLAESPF

B1: Example 295 (peptide)
peptide: Y[Aib]EGTFTSDYSILLDKK([AEEA-AEEA-γGlu-C18 diacid])AQHAFIEYLIEGG-NH2
modifications: N-terminus assumed
SMILES: CC[C@H](C)[C@H](NC(=O)[C@H](CC(C)C)NC(=O)[C@H](Cc1ccc(O)cc1)NC(=O)[C@H](CCC(=O)O)NC(=O)[C@@H](NC(=O)[C@H](Cc1ccccc1)NC(=O)[C@H](C)NC(=O)[C@H](Cc1c[nH]cn1)NC(=O)[C@H](CCC(N)=O)NC(=O)[C@H](C)NC(=O)[C@H](CCCCNC(=O)COCCOCCNC(=O)COCCOCCNC(=O)CC[C@H](NC(=O)CCCCCCCCCCCCCCCCC(=O)O)C(=O)O)NC(=O)[C@H](CCCCN)NC(=O)[C@H](CC(=O)O)NC(=O)[C@H](CC(C)C)NC(=O)[C@H](CC(C)C)NC(=O)[C@@H](NC(=O)[C@H](CO)NC(=O)[C@H](Cc1ccc(O)cc1)NC(=O)[C@H](CC(=O)O)NC(=O)[C@H](CO)NC(=O)[C@@H](NC(=O)[C@H](Cc1ccccc1)NC(=O)[C@@H](NC(=O)CNC(=O)[C@H](CCC(=O)O)NC(=O)C(C)(C)NC(=O)[C@@H](N)Cc1ccc(O)cc1)[C@@H](C)O)[C@@H](C)O)[C@@H](C)CC)[C@@H](C)CC)C(=O)N[C@@H](CCC(=O)O)C(=O)NCC(=O)NCC(N)=O
As a reminder, the Ki is the equilibrium dissociation constant of an inhibitor or competing ligand from its target. A high value points to a looser hold on the target. For the molecule B1, the Ki with human GIP receptor stood at 0.181 nM; in the experiment with human GLP-1 receptor it was 4.12 nM.

B2: Example 362 (peptide)
peptide: XXEGTFTSDYSIXLDXKAQXAFVXYLIAGGPSSGAPPPS
modifications: D-Tyr1; Aib2; αMeL13; Orn16; K17((2-[2-(2-Amino-ethoxy)-ethoxy]-acetyl)2-(γ-Glu)-CO-(CH2)18-CO2H); Aib20; D-Glu24; C-terminal NH2
Regarding B2, the inhibition constant Ki with human GIP receptor was found to be 0.337 nM; with human GLP-1 receptor, 6.95 nM.

B3: Example 349 (peptide)
peptide: XXEGTFTSDYSIXLDXKAQXEFIEYLIAGGPSSGAPPPS
modifications: D-Tyr1; Aib2; αMeL13; Orn16; K17((2-[2-(2-Amino-ethoxy)-ethoxy]-acetyl)2-(γ-Glu)-CO-(CH2)18-CO2H); Aib20; C-terminal NH2
As to B3, the inhibitory constant (Ki) is 0.08 nM in the experiment with human GIP receptor and 1.72 nM with human GLP-1 receptor.

B4: Example 364 (peptide)
peptide: XXEGTFTSDYSIXLDXKAQXAFVXYLIAGGPSSGAPPPS
modifications: not fully specified; D-Tyr1; Aib2; αMeL13; Orn16; K17((2-[2-(2-Amino-ethoxy)-ethoxy]-acetyl)2-(γ-Glu)-CO-(CH2)16-CO2H); Aib20; D-Glu24; C-terminal NH2
For B4, the Ki came to 0.672 nM with human GIP receptor and 17.2 nM in the experiment with human GLP-1 receptor.

B5: Example 359 (peptide)
peptide: XXEGTFTSDYSIXLDXKAQXEFVEYLIAGGPSSGAPPPS
modifications: D-Tyr1; Aib2; αMeL13; Orn16; K17((2-[2-(2-Amino-ethoxy)-ethoxy]-acetyl)2-(γ-Glu)-CO-(CH2)18-CO2H); Aib20; C-terminal NH2
In the case of B5, the Ki is 0.0874 nM in the experiment with human GIP receptor and 2.59 nM in the experiment with human GLP-1 receptor.

B6: Example 296 (peptide)
peptide: Y[Aib]EGTFTSDYSILLDKK([AEEA-AEEA-γGlu-C18 diacid])AQKAFIEYLIEGGPSSG-NH2
modifications: N-terminus assumed
SMILES: CC[C@H](C)[C@H](NC(=O)[C@H](CC(C)C)NC(=O)[C@H](Cc1ccc(O)cc1)NC(=O)[C@H](CCC(=O)O)NC(=O)[C@@H](NC(=O)[C@H](Cc1ccccc1)NC(=O)[C@H](C)NC(=O)[C@H](CCCCN)NC(=O)[C@H](CCC(N)=O)NC(=O)[C@H](C)NC(=O)[C@H](CCCCNC(=O)COCCOCCNC(=O)COCCOCCNC(=O)CC[C@H](NC(=O)CCCCCCCCCCCCCCCCC(=O)O)C(=O)O)NC(=O)[C@H](CCCCN)NC(=O)[C@H](CC(=O)O)NC(=O)[C@H](CC(C)C)NC(=O)[C@H](CC(C)C)NC(=O)[C@@H](NC(=O)[C@H](CO)NC(=O)[C@H](Cc1ccc(O)cc1)NC(=O)[C@H](CC(=O)O)NC(=O)[C@H](CO)NC(=O)[C@@H](NC(=O)[C@H](Cc1ccccc1)NC(=O)[C@@H](NC(=O)CNC(=O)[C@H](CCC(=O)O)NC(=O)C(C)(C)NC(=O)[C@@H](N)Cc1ccc(O)cc1)[C@@H](C)O)[C@@H](C)O)[C@@H](C)CC)[C@@H](C)CC)C(=O)N[C@@H](CCC(=O)O)C(=O)NCC(=O)NCC(=O)N1CCC[C@H]1C(=O)N[C@@H](CO)C(=O)N[C@@H](CO)C(=O)NCC(N)=O
B6: the Ki is 0.444 nM in the experiment with human GIP receptor and 3.33 nM with human GLP-1 receptor.

B7: Example 213 (peptide)
peptide: YXEGTXTSDYSIXLDEKAQXEFIXYLIEGGPSSGAPPPS
modifications: Aib2; αMeF6; αMeL13; K17((2-[2-(2-Amino-ethoxy)-ethoxy]-acetyl)2-(γ-Glu)-CO-(CH2)16-CO2H); Aib20; D-Glu24; C-terminal NH2
Regarding B7, the inhibition constant (Ki) was determined as 0.365 nM in the experiment with human GIP receptor, 544 nM in the experiment with human glucagon receptor and 2.75 nM in the experiment with human GLP-1 receptor.

B8: Example 217 (peptide)
peptide: YXEGTXTSDYSIXLDXKAQXEFIXYLIEGGPSSGAPPPS
modifications: Aib2; αMeF(2F)6; αMeL13; Dab16; K17((2-[2-(2-Amino-ethoxy)-ethoxy]-acetyl)2-(γ-Glu)-CO-(CH2)18-CO2H); Aib20; D-Glu24; C-terminal NH2
For the molecule B8, the figures for the inhibition constant Ki in the experiment with human GIP receptor, in the experiment with human glucagon receptor and with human GLP-1 receptor were 0.0376 nM, 516 nM and 2.02 nM, respectively.

B9: Example 343 (peptide)
peptide: YXEGTFTSDYSIXLDEKAQXAFIXYLIAGGPSSGAPPPS
modifications: Aib2; αMeL13; K17((2-[2-(2-Amino-ethoxy)-ethoxy]-acetyl)2-(γ-Glu)-CO-(CH2)18-CO2H); Aib20; D-Glu24; C-terminal NH2
For B9, the figures for the inhibition constant (Ki) with human GIP receptor and with human GLP-1 receptor were 0.0374 nM and 13.3 nM, respectively.

B10: Example 218 (peptide)
peptide: YXEGTXTSDYSIXLDXKAQXEFIXYLIEGGPSSGAPPPS
modifications: Aib2; αMeF(2F)6; αMeL13; Dap16; K17((2-[2-(2-Amino-ethoxy)-ethoxy]-acetyl)2-(γ-Glu)-CO-(CH2)18-CO2H); Aib20; D-Glu24; C-terminal NH2
On to B10, for which the Ki in the experiment with human GIP receptor is 0.0593 nM; with human glucagon receptor, 270 nM; in the experiment with human GLP-1 receptor, 2.54 nM.

B11: Example 214 (peptide)
peptide: YXEGTXTSDYSIXLDEKAQXEFIXYLIEGGPSSGAPPPS
modifications: Aib2; αMeF(2F)6; αMeL13; K17((2-[2-(2-Amino-ethoxy)-ethoxy]-acetyl)2-CO-(CH2)16-CO2H); Aib20; D-Glu24; C-terminal NH2
B11: the inhibitory constant (Ki) in the experiment with human GIP receptor was found to be 0.0304 nM; with human glucagon receptor, 126 nM; in the experiment with human GLP-1 receptor, 1.99 nM.

B12: Example 216 (peptide)
peptide: YXEGTXTSDYSIXLDEKAQXEFIXYLIEGGPSSGAPPPS
modifications: Aib2; αMeF(2F)6; αMeL13; K17((2-[2-(2-Amino-ethoxy)-ethoxy]-acetyl)2-(εK)-CO-(CH2)18-CO2H); Aib20; D-Glu24; C-terminal NH2
As to B12, the values for the inhibition constant (Ki) in the experiment with human GIP receptor, with human glucagon receptor and with human GLP-1 receptor were 0.0559 nM, 45.2 nM and 2.34 nM, respectively.

B13: Example 215 (peptide)
peptide: YXEGTXTSDYSIXLDEKAQXEFIXYLIEGGPSSGAPPPS
modifications: Aib2; αMeF(2F)6; αMeL13; K17((2-[2-(2-Amino-ethoxy)-ethoxy]-acetyl)2-CO-(CH2)18-CO2H); Aib20; D-Glu24; C-terminal NH2
Take B13: the inhibitory constant (Ki) in the experiment with human GIP receptor amounted to 0.0666 nM; with human glucagon receptor, 75.2 nM; with human GLP-1 receptor, 6.85 nM.

B14: Example 212 (peptide)
peptide: YXEGTXTSDYSIXLDKKAQXEFIXYLIEGGPSSGAPPPS
modifications: Aib2; αMeF(2F)6; αMeL13; K17((2-[2-(2-Amino-ethoxy)-ethoxy]-acetyl)2-(γ-Glu)-CO-(CH2)18-CO2H); Aib20; D-Glu24; C-terminal NH2
As to B14, the Ki with human GIP receptor was 0.0978 nM; with human glucagon receptor, 205 nM; with human GLP-1 receptor, 2.76 nM.

B15: Example 230 (peptide)
peptide: YXEGTXTSDYSIXLDHKAQXEFIXYLIEGGPSSGAPPPS
modifications: Aib2; αMeF(2F)6; αMeL13; K17((2-[2-(2-Amino-ethoxy)-ethoxy]-acetyl)2-(γ-Glu)-CO-(CH2)18-CO2H); Aib20; D-Glu24; C-terminal NH2
As to B15, the Ki was determined as 0.042 nM with human GIP receptor, 494 nM in the experiment with human glucagon receptor and 4.68 nM with human GLP-1 receptor.

B16: Example 231 (peptide)
peptide: YXEGTXTSDYSIXLDKKAQXEFIXYLIEGGPSSGAPPPS
modifications: Aib2; αMeF(2F)6; αMeL13; K17((2-[2-(2-Amino-ethoxy)-ethoxy]-acetyl)2-(γ-Glu)-CO-(CH2)16-CO2H); Aib20; D-Glu24; C-terminal NH2
Consider B16, for which the results for the Ki with human GIP receptor, in the experiment with human glucagon receptor and with human GLP-1 receptor were 0.0394 nM, 440 nM and 3.03 nM, respectively.

B17: Example 304 (peptide)
peptide: YXEGTFTSDYSIXLDKKAQXEFIEYLIEGGPSSG
modifications: Aib2; αMeL13; K17((2-[2-(2-Amino-ethoxy)-ethoxy]-acetyl)2-(γ-Glu)-CO-(CH2)16-CO2H); Aib20; C-terminal NH2
Turning to B17, the Ki in the experiment with human GIP receptor was found to be 0.0499 nM; with human GLP-1 receptor, 4.44 nM.

B18: Example 306 (peptide)
peptide: YXEGTFTSDYSIXLDKKAQXEFIEYLIAGGPSSG
modifications: Aib2; αMeL13; K17((2-[2-(2-Amino-ethoxy)-ethoxy]-acetyl)2-(γ-Glu)-CO-(CH2)16-CO2H); Aib20; C-terminal NH2
For B18, the values for the Ki with human GIP receptor and in the experiment with human GLP-1 receptor were 0.0349 nM and 2.86 nM, respectively.

B19: Example 315 (peptide)
peptide: YXEGTFTSDYSILLDKKAQXAFIEYLIEGGPSSGAPPPS
modifications: Aib2; K17((2-[2-(2-Amino-ethoxy)-ethoxy]-acetyl)2-(γ-Glu)-CO-(CH2)16-CO2H); Aib20; C-terminal NH2
Regarding B19, the Ki with human GIP receptor was found to be 0.0677 nM; with human glucagon receptor, 539 nM.

B20: Example 352 (peptide)
peptide: XXEGTFTSDYSIXLDKKAQXAFIXYLIAGGPSSGAPPPS
modifications: D-Tyr1; Aib2; αMeL13; K17((2-[2-(2-Amino-ethoxy)-ethoxy]-acetyl)2-(γ-Glu)-CO-(CH2)18-CO2H); Aib20; D-Glu24; C-terminal NH2
Take B20: the results for the Ki in the experiment with human GIP receptor and with human GLP-1 receptor were 0.0726 nM and 3.03 nM, respectively.

B21: Example 356 (peptide)
peptide: XXEGTFTSDYSIXLDKKAQXAFIXYLIEGGPSSGAPPPS
modifications: D-Tyr1; Aib2; αMeL13; K17((2-[2-(2-Amino-ethoxy)-ethoxy]-acetyl)2-(γ-Glu)-CO-(CH2)18-CO2H); Aib20; D-Glu24; C-terminal NH2
On to B21, for which the inhibition constant Ki in the experiment with human GIP receptor is 0.35 nM; with human GLP-1 receptor it was 10.3 nM.

Source of the values: patent publication US20200024322A1 (Eli Lilly, published 2020).
